The target in assay [1] is 红细胞胞膜抗原 (Erythrocyte membrane antigen) on human fresh red blood cells (human). Kind of assay: ELISA on formaldehyde-fixed human red blood cells; antibody at 6.25 ng/ml.
Assay [2] has the same target. Kind of assay: ELISA on formaldehyde-fixed human red blood cells; antibody at 0 ng/ml (blank). In general terms: In an ELISA, binding on a coated surface is turned into a signal by an enzyme label.
The target is the same in assay [3]. Kind of assay: ELISA on formaldehyde-fixed human red blood cells; antibody at 50 ng/ml.
The target is the same in assay [4]. Kind of assay: ELISA on formaldehyde-fixed human red blood cells; antibody at 12.5 ng/ml.
Assay [5] shares this target. Kind of assay: ELISA on formaldehyde-fixed human red blood cells; antibody at 3.125 ng/ml.
The target is the same in assay [6]. Put plainly: ELISA on formaldehyde-fixed human red blood cells; antibody at 25 ng/ml.
The target is the same in assay [7]. Kind of assay: ELISA on red blood cells; Anti-EM-8F9mut1 stored 21 days at 37 C; antibody at 1.5625 ng/ml.
The target is the same in assay [8]. Kind of assay: ELISA on red blood cells; Anti-EM-8F9mut1 stored 21 days at 4 C; antibody at 12.5 ng/ml.
For assay [9] the target is unchanged. Put plainly: ELISA on red blood cells; Anti-EM-8F9mut1 stored 21 days at -80 C; antibody at 0 ng/ml (blank).
For assay [10] the target is unchanged. Kind of assay: ELISA on red blood cells; Anti-EM-8F9mut1 stored 21 days at -80 C; antibody at 12.5 ng/ml.
For assay [11] the target is unchanged. Kind of assay: ELISA on red blood cells; Anti-EM-8F9mut1 stored 21 days at 37 C; antibody at 12.5 ng/ml.
Assay [12] has the same target. Put plainly: ELISA on red blood cells; Anti-EM-8F9mut1 stored 21 days at -80 C; antibody at 1.5625 ng/ml.
The target is the same in assay [13]. Kind of assay: ELISA on red blood cells; Anti-EM-8F9mut1 stored 21 days at 4 C; antibody at 0 ng/ml (blank).
The target is the same in assay [14]. Put plainly: ELISA on red blood cells; Anti-EM-8F9mut1 stored 21 days at 4 C; antibody at 1.5625 ng/ml.
Assay [15] has the same target. Kind of assay: ELISA on red blood cells; Anti-EM-8F9mut1 stored 21 days at 37 C; antibody at 0 ng/ml (blank).

For the molecule 对照抗体 (antibody), the OD450 (ref 630 nm) was found to be 0.408 OD in assay [1]; 0.041 OD in assay [2]; 1.89 OD in assay [3]; 0.696 OD in assay [4]; 0.196 OD in assay [5]; 1.3 OD in assay [6].

B1: Anti-EM-8F9mut1单克隆抗体 (antibody, mouse IgG2a, kappa, V domains shown)
VH: QVPLQQPGAALVKPGASVKLSCQASDYTFTNYNMHWVKQTPGQGLEWIGTIYAGDGDPSYNQKFKGQATLTADKSSSTAYMQLLSLTSEDSAVYYCARGGTRAMDYWGHGTSVTVSS
VL: DVLLTQIPLSLPVSLGDQASLSCRSSQTLVHSDGNTYLAWYLQKPGQSPKLLIYKVSRRFSGVPDRFSGSGSGTDFTLKISRVEAEDLGVYYCFQGSHVPFTFGSGTKLEVKR
B1: the OD450 (ref 630 nm) stood at 0.666 OD in assay [7]; 2 OD in assay [1]; 0.063 OD in [2]; 2.12 OD in [8]; 0.051 OD in [9]; 2.36 OD in assay [3]. The OD450 (ref 630 nm) in [10] worked out at 2.15 OD; in assay [4] it was 2.33 OD; in assay [11], 2.13 OD; in [12], 0.647 OD; in assay [13], 0.047 OD; in assay [14] it was 0.691 OD. Further, the OD450 (ref 630 nm) in assay [5] was determined as 1.28 OD; in assay [15] it was 0.057 OD; in assay [6], 2.42 OD.

Source of the values: patent CN116535505A.
